# Assays:
# [1] = tested on: T1, amidated 16'mer peptide RKKFGESEKTKTKEFL
# T1 sequence: RKKFGESEKTKTKEFL
# [2] = tested on: peptides centered around the phosphorylation site of eEF-2
substance,measurement,setting,value
recombinant eEF-2 kinase (as used in the peptide phosphorylation assay),phosphoacceptor activity,[1],"amidation of the peptide further stabilizes the α-helical structure, resulting in stronger phosphoacceptor activity"
same,phosphorylation assays,[2],This strategy did not yield a peptide that was functional in phosphorylation assays (data not shown)

# Source: US20020142429
